From publication PMC5075775

Each sequence was assayed on monoclonal anti-dsDNA antibody HYB 331-01, clone 35I9 (assay: ELISA). Conditions: LNA at 1, 4 of strand 1; SPR: Biacore X100, SA chip, immobilisation in HBS-EP+ (0.1 M HEPES, 1.5 M NaCl, 30 mM EDTA, 0.5% P20), 37 C; ELISA: antigens coated in PBS, diluent PBS ….

Row | Sequence | binding signal [A450]
1 | TCCTCTCTTTCTCTTTCTCTT (double strand) [D20] | 0.89

Same assay, conditions: LNA at 4, 13, 19 of strand 1; SPR: Biacore X100, SA chip, immobilisation in HBS-EP+ (0.1 M HEPES, 1.5 M NaCl, 30 mM EDTA, 0.5% P20), 37 C; ELISA: antigens coated in PBS, diluent PBS …

Row | Sequence | binding signal [A450]
2 | TCCTCTCTTTCTCTTTCTCTT (double strand) [D19 (LNA pattern of SEQ1)] | 1.12

Same assay, conditions: LNA at 4 of strand 1; SPR: Biacore X100, SA chip, immobilisation in HBS-EP+ (0.1 M HEPES, 1.5 M NaCl, 30 mM EDTA, 0.5% P20), 37 C; ELISA: antigens coated in PBS, diluent PBS …

Row | Sequence | binding signal [A450]
3 | TCCTCTCTTTCTCTTTCTCTT (double strand) [D22] | 0.56

Same assay, conditions: LNA at 11, 13 of strand 1; SPR: Biacore X100, SA chip, immobilisation in HBS-EP+ (0.1 M HEPES, 1.5 M NaCl, 30 mM EDTA, 0.5% P20), 37 C; ELISA: antigens coated in PBS, diluent PBS …

Row | Sequence | binding signal [A450]
4 | TCCTCTCTTTCTCTTTCTCTT (double strand) [D21] | 0.77

Same assay, conditions: SPR: Biacore X100, SA chip, immobilisation in HBS-EP+ (0.1 M HEPES, 1.5 M NaCl, 30 mM EDTA, 0.5% P20), 37 C; ELISA: antigens coated in PBS, diluent PBS …

Row | Sequence | binding signal [A450]
5 | TTATATTTATATTTATATAAT (double strand) [D6 (AT)] | 1
6 | AGGGAGGGGGAGAGGGAGAGG (double strand) [D11 (AG)] | 0.78
7 | TCCTCTCTTT (double strand) [D15 (TC 10mer)] | 0.9
8 | GGAGAGGGAGAGGGGGAGGGA (double strand) [D13 (GA)] | 0.89
9 | TGAACTCTATGTCTGTATCAT (double strand) [D14 (ATCG mixmer, SEQ7)] | 1.55
10 | TCCTCTCTTTCTCTTTCTCTTTCCTCTCTTTCTCTTTCTCTTTCCTCTCTTTCTCTTTCTCTT (double strand) [D17 (TC 63mer)] | 1.5
11 | TTCTCTTTCTCTTTCTCTCCT (double strand) [D5 (CT)] | 0.98
12 | ATTTATTTTTATATTTATATT (double strand) [D8 (AT, SEQ6)] | 1.27
13 | TGGTGTGTTTGTGTTTGTGTT (double strand) [D3 (TG)] | 1.13
14 | CCACACCCACACCCCCACCCA (double strand) [D12 (CA)] | 0.78
15 | ATTTATTTTT (double strand) [D16 (AT 10mer)] | 0.76
16 | ATTTATTTTTATATTTATATTATTTATTTTTATATTTATATTATTTATTTTTATATTTATATT (double strand) [D18 (AT 63mer)] | 1.44
17 | TTGTGTTTGTGTTTGTGTGGT (double strand) [D7 (GT)] | 1.87
18 | TAATATATTTATATTTATATT (double strand) [D2 (TA)] | 1.11
19 | TCCTCTCTTTCTCTTTCTCTT (double strand) [D1 (SEQ5)] | 1.41

What follows are sequences tested on monoclonal anti-DNA antibody ED-10 (assay: SPR). Conditions: ka 1.009e8, kd 7.860e-1; text also claims higher binding of SEQ4; LNA at 4, 10, 13, 19 of strand 1 by plus signs (Table 1 lists 4, 10, 14, 19); SPR: Biacore X100, SA chip, immobilisation in HBS-EP+ (0.1 M HEPES, 1.5 M NaCl, 30 mM EDTA, 0.5% P20), 37 C; ELISA: antigens coated in PBS, diluent PBS ….

Row | Sequence | Kd [nM]
20 | TCCTCTCTTTCTCTTTCTCTT (double strand) [SEQ4 biotinylated LNA/DNA duplex (SPR)] | 779

Same assay, conditions: ka 3.341e3, kd 3.531e-4; SPR: Biacore X100, SA chip, immobilisation in HBS-EP+ (0.1 M HEPES, 1.5 M NaCl, 30 mM EDTA, 0.5% P20), 37 C; ELISA: antigens coated in PBS, diluent PBS …

Row | Sequence | Kd [nM]
21 | TCCTCTCTTTCTCTTTCTCTT (double strand) [SEQ5 biotinylated duplex (SPR)] | 106
